In the supplement of paper PMC10126150:
± gives the standard deviation of the averaged measurements.

test system: ATP; assay: switch fluorescence ratio, 500 uM ATP over buffer (Cy3 cluster intensity, sum of 5 cycles each) (fold (ratio)); higher = stronger signal-on switching upon ATP binding; sequences stand for … in TCGTCGGCAGCGTCAGATGTGTATAAGAGACAGTTTTTTTTTTTTTTTTTTTTTTTTT…TC; conditions: aptamer strand: ATP DNA aptamer (quencher-CACCTGGGGGAGTATTGCGGAGGAAGG + anchor), 100 nM annealed; ATP concentration: 500 uM
Method in brief: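 The fluorescence ratio divides summed target-cycle Cy3 intensity by summed buffer-cycle Cy3 intensity for each cluster and is averaged per switch-domain sequence. Cy3-labelled switching-strand clusters on a modified Illumina MiSeq flow-cell were annealed to 100 nM quencher-labelled ATP aptamer, then imaged in selection buffer and again after 15 min with 500 uM ATP at 22 °C. Five such cycles were run, with NaOH stripping and re-annealing between them, and clusters outside 100-1000 RFU were excluded.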
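Note: ATP exposure 15 min at 22 °C before imaging.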

In order of falling switch fluorescence ratio:
1. CCGTTCTTAC  2.84 ± 1.1
2. CTCGTCCGAC  1.53 ± 0.11
3. ACACGTACTT  1.52 ± 0.065
4. ACTAACGGGG  1.35 ± 0.084
5. AAGTACCTAT  1.27 ± 0.058
6. GGCTCGGTAC  1.24 ± 0.13
7. TTTTAGCAAC  1.2325 ± 0.0007
8. ACATAACGAA  1.21 ± 0.013
9. CGCAGTTCTT  1.198 ± 0.0086
10. CTCGCATGCA  1.2 ± 0.035
11. TAGGTGTCAT  1.15 ± 0.32
12. TAACTCACTA  1.15 ± 0.017
13. TTCCCGTTGA  1.14 ± 0.027
14. ACTGAACGGT  1.14 ± 0.055
15. TTCTAACCCC  1.12 ± 0.012
16. ATATTCGCTC  1.12 ± 0.1
17. GAAAGGCGAG  1.11 ± 0.053
18. GCCCCTTAGG  1.1 ± 0.045
19. CTATCAGCTA  1.1 ± 0.03
20. GCTACCACTC  1.089 ± 0.01
21. AAAGGGTACT  1.08 ± 0.064
22. TTCGTAATCG  1.07 ± 0.093
23. CCAGTGTGGT  1.07 ± 0.074
24. CACTATAACT  1.071 ± 0.0068
25. TAATGATTGC  1.056 ± 0.0026
26. TGGTGTGGAG  1.062 ± 0.006
27. GCTCTGAGGG  1.056 ± 0.009
28. CAGTGGGCGG  1.06 ± 0.07
29. TTGTTTTAGT  1.06 ± 0.067
30. TCCAGGGCTT  1.06 ± 0.013
31. AGGGACATGC  1.0581 ± 0.00016
32. GGGTAAGTGC  1.047 ± 0.0017
33. AAATTTTTGC  1.05 ± 0.015
34. AACACGGCTG  1.05 ± 0.027
35. GCCAGATGCG  1.05 ± 0.064
36. TGCGTCTATT  1.05 ± 0.078
37. GGTATAGGTC  1.05 ± 0.011
38. ATGAGGGTTG  1.04 ± 0.013
39. CAGGCGCTCT  1.04 ± 0.054
40. CTCGGAATTT  1.04 ± 0.037
41. ACGGTTTCTG  1.04 ± 0.029
42. CGTGAATTGT  1.044 ± 0.01
43. TTTGCTTCGT  1.04 ± 0.048
44. AAAAGGGGCA  1.04 ± 0.051
45. TAAGGCATAG  1.04 ± 0.044
46. AAAATCTTGT  1.04 ± 0.0066
47. CTATTACGG  1.04 ± 0.075
48. GGGGCACCTC  1.04 ± 0.015
49. AATTAGACGG  1.03 ± 0.046
50. GGGGGCAAAA  1.03 ± 0.025
51. ATTTTGTTGT  1.03 ± 0.048
52. GAGTCAACGG  1.027 ± 0.0071
53. GTTTTGGAGC  1.03 ± 0.067
54. TTAGTCCTTT  1.03 ± 0.058
55. GCGCGCGTTC  1.03 ± 0.045
56. TACGATGTGT  1.03 ± 0.039
57. GATGGCGGAG  1.03 ± 0.042
58. TCCCGAAGAT  1.03 ± 0.023
59. GTCGTTGTTC  1.03 ± 0.027
60. GCTAGGGTAG  1.03 ± 0.058
61. TCCAAGCTGG  1.03 ± 0.025
62. AGCGACCGTT  1.032 ± 0.0078
63. AGATGTATAG  1.034 ± 0.009
64. AAGGGTGCGA  1.02 ± 0.04
65. TATCGAGATA  1.02 ± 0.04
66. TATCCACATT  1.02 ± 0.019
67. TTAAGATAGT  1.02 ± 0.028
68. TTCAAGTTTT  1.02 ± 0.063
69. TTTGGGGAAT  1.02 ± 0.033
70. GAAGTTTAAA  1.02 ± 0.035
71. TCCGGGGTGG  1.022 ± 0.0097
72. TTTTGTTTGC  1.02 ± 0.03
73. TATGTTTTTA  1.02 ± 0.019
74. ATCGTTTGCA  1.02 ± 0.022
75. TCAGGGGGAG  1.02 ± 0.054
76. TGACATAGGT  1.02 ± 0.019
77. GAGGGGGTCA  1.02 ± 0.029
78. GCGATGTATA  1.02 ± 0.013
79. ATTTTTAGCT  1.02 ± 0.031
80. GTATACGCAG  1.02 ± 0.026
81. TGGTTCGGAA  1.016 ± 0.0048
82. TGGTTATATT  1.02 ± 0.026
83. GTATGAGTTG  1.02 ± 0.027
84. GGGGTGCTG  1.02 ± 0.036
85. TATCACTAGG  1.02 ± 0.0022
86. AACGAAGATT  1.01 ± 0.019
87. TTATTAAGTT  1.01 ± 0.027
88. TGGCCGCGGA  1.01 ± 0.03
89. TTATGGTTAG  1.008 ± 0.0092
90. TTTTGTTTAC  1.01 ± 0.028
91. GATTGGAAAG  1.0069 ± 0.00042
92. AGGTGAAGGT  1.01 ± 0.0035
93. ACAAGGGGCA  1.01 ± 0.028
94. TAGAGAAGCA  1.012 ± 0.0061
95. GGGTTGTCGT  1.01 ± 0.062
96. GAGTTGCAGG  1.01 ± 0.032
97. TTGCATGGAA  1.01 ± 0.0049
98. GGGAAAATGG  1.01 ± 0.016
99. CTAGGCAGGG  1.01 ± 0.005
100. TTAATTCATT  1.01 ± 0.016
101. ATTGATTGAA  1.01 ± 0.012
102. CTTTTTTGGG  1.01 ± 0.014
103. GGAATTTCTT  1.01 ± 0.047
104. AGCTGTAGTA  1.01 ± 0.011
105. TCTAATCCGG  1.015 ± 0.0051
106. TTCCAAATCC  1.01 ± 0.056
107. GGTTTAGGTT  1.01 ± 0.029
108. GCATGCTGGT  1.01 ± 0.024
109. ATGGCAACAT  1.01 ± 0.041
110. CACTCTTGAT  1.01 ± 0.019
111. TCATGAACAC  1.01 ± 0.05
112. TTTAAAAGGA  1.01 ± 0.056
113. TGCCCGGGGA  1 ± 0.037
114. TAATCGGGAA  1 ± 0.017
115. ATGAAGGGTT  1 ± 0.029
116. CAGTAATTGA  1 ± 0.026
117. GCTCTTGACA  1 ± 0.011
118. AATAATCGCC  1 ± 0.05
119. TTTTATTAAA  1 ± 0.031
120. TGGGTTATTT  1 ± 0.038
121. CTAACGGGTA  1 ± 0.018
122. GCTGGAATAT  1 ± 0.039
123. TGAGGCTGTT  1 ± 0.031
124. AATCTGGGGT  1 ± 0.028
125. TGGGGCGCTT  1 ± 0.033
126. TGCAAATTTT  1 ± 0.036
127. GTCAATTGCA  0.999 ± 0.026
128. TGGGGTTAAT  0.997 ± 0.028
129. TTTAGGAGGA  0.997 ± 0.025
130. AGTGATGAAG  0.996 ± 0.037
131. TATTTTAGTG  0.996 ± 0.025
132. AGTAATGGGT  0.996 ± 0.017
133. GACGAGCCTG  0.996 ± 0.015
134. AATAAGGTA  0.995 ± 0.022
135. CAGTATTTTG  0.9952 ± 0.0031
136. GCTGGTGTGG  0.995 ± 0.011
137. CTTATTAACT  0.9954 ± 0.0069
138. GAAATTTTGC  0.995 ± 0.033
139. TCTGTTGGGC  0.995 ± 0.025
140. GACGGGGCGG  0.994 ± 0.031
141. ATGGTTGGGG  0.994 ± 0.031
142. TAGGTTTGCG  0.994 ± 0.053
143. GGGCAGGCAC  0.993 ± 0.018
144. TCTGAGTTTG  0.993 ± 0.038
145. GGGGTTTGTT  0.992 ± 0.034
146. GTTATTATTC  0.9922 ± 0.0057
147. TCGTAGAAGG  0.991 ± 0.048
148. AGGGGGGGC  0.991 ± 0.015
149. CGTTGATGTG  0.99 ± 0.045
150. TTTATAGTCT  0.99 ± 0.021
151. AGTTTGTTGG  0.989 ± 0.035
152. GCTAGCTGGT  0.989 ± 0.021
153. ACGTCGCGGG  0.9877 ± 0.0019
154. GATATTGTTT  0.988 ± 0.019
155. TCAGCTCTTC  0.987 ± 0.042
156. AGAAGTTGCG  0.986 ± 0.0083
157. GGGGAGTGAG  0.986 ± 0.017
158. TTAATTGCGA  0.9861 ± 0.0048
159. GGCGAGAACG  0.986 ± 0.018
160. TGGTTTTGTG  0.9862 ± 0.0015
161. TAATTTCGGG  0.986 ± 0.013
162. GGTTTTTACG  0.985 ± 0.061
163. CTCGGGTGGG  0.985 ± 0.037
164. TAGCGCTGCC  0.984 ± 0.012
165. CGTCTGTGGG  0.9844 ± 0.0041
166. AATGGGTGAT  0.9826 ± 0.0024
167. AAGTTTACGC  0.983 ± 0.025
168. TTTACAAGT  0.982 ± 0.035
169. AAACAGGGGG  0.982 ± 0.028
170. GTTTTCCCTT  0.982 ± 0.016
171. TGGGTAAAGA  0.981 ± 0.049
172. GGGAGGGTTG  0.981 ± 0.031
173. GAATGGGGTT  0.98 ± 0.026
174. GGGTGAGCTG  0.98 ± 0.04
175. TTTTGTTAGG  0.98 ± 0.01
176. AGTCTGTCGT  0.98 ± 0.039
177. AATAATTTGG  0.978 ± 0.012
178. GCGGTACAGC  0.9782 ± 0.0069
179. TAAAAGGAAA  0.9773 ± 0.0045
180. GCATGGTTTT  0.975 ± 0.029
181. GGCTCTTAGG  0.975 ± 0.03
182. TGGTGACTTA  0.974 ± 0.039
183. TGCTTGAGCA  0.974 ± 0.019
184. GGAGCAGCTG  0.97336 ± 0.00053
185. CTGGGTTAGG  0.973 ± 0.032
186. ACAGAAGGGT  0.972 ± 0.098
187. TGAGTGTGCT  0.972 ± 0.011
188. CTGGGAGGTT  0.97 ± 0.05
189. GGGTAGCGCT  0.969 ± 0.039
190. TGAAGTTCGC  0.969 ± 0.021
191. TATCGAAGCG  0.969 ± 0.058
192. TATGTTCGAG  0.968 ± 0.033
193. GAGGGGCCTA  0.968 ± 0.021
194. AAGGGGATGG  0.968 ± 0.038
195. ATTTGAACGT  0.966 ± 0.085
196. GTCGTTAGGG  0.963 ± 0.051
197. CGGGACCTGG  0.958 ± 0.077
198. GGTATTCTGT  0.951 ± 0.03
199. ATTGTGGATA  0.95 ± 0.022
200. AGAAAGGGCG  0.94 ± 0.037
